Laboratory results reported in article doi:10.1101/2023.02.07.527516.
Each block holds one substance with its values, some of them ahead of it.

Legend:
Assay in all cases: native gel or EMSA
[1] = molecular target: GluA1 lacking the extracellular domains (GluA1-ΔECD) (rat)
[2] = molecular target: GluA1 AMPA receptor subunit, wild type (rat, flip) (rat)
[3] = molecular target: GluA1(G816A)-TARP γ-2 tandem (rat)
[4] = molecular target: GluA1-TARP γ-2 tandem (rat)
GluA1(G816A) (rat) = molecular target: GluA1(G816A) (rat)
[5] = molecular target: GluA2(R), edited form of the GluA2 AMPA receptor subunit (rat, flip) (rat)

Chain of GluA2(R), edited form of the GluA2 AMPA receptor subunit (rat, flip) (P19491 22-883): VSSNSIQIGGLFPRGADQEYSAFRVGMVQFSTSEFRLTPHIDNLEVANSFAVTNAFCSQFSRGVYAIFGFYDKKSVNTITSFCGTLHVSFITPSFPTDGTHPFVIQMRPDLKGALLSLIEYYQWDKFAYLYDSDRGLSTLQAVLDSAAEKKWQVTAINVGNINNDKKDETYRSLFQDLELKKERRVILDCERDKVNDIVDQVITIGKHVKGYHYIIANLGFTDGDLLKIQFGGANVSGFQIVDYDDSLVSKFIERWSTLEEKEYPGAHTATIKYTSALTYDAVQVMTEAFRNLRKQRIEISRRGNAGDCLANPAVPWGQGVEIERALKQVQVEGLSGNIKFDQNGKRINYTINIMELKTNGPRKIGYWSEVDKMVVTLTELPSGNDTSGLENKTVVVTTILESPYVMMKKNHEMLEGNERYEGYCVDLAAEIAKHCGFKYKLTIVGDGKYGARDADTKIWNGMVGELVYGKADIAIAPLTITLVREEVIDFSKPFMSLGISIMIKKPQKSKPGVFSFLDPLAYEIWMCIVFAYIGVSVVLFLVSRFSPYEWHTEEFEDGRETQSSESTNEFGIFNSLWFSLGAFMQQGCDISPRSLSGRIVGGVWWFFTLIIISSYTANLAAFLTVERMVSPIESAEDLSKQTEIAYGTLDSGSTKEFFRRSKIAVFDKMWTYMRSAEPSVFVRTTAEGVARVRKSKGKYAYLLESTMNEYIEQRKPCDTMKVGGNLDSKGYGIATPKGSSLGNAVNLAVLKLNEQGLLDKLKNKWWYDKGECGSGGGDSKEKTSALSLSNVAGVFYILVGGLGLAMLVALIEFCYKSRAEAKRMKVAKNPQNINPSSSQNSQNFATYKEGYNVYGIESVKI

Substance: GluA1 lacking the extracellular domains (GluA1-ΔECD) (domain or fragment)
stoichiometry N [1]: 4

Substance: GluA1(G816A)-TARP γ-2 tandem
stoichiometry N [3]: 4

Substance: GluA2(R), edited form of the GluA2 AMPA receptor subunit (rat, flip)
stoichiometry N [5]: 4

More lines, now with the values ahead:

stoichiometry N [2]: 4
Substance: GluA1 AMPA receptor subunit, wild type (rat, flip)

stoichiometry N [4]: 4
Substance: GluA1-TARP γ-2 tandem

tetramer formation (GluA1(G816A) (rat)): 50%
Substance: GluA1(G816A) (receptor)
